US20260166158A1, “HSP90-BINDING CONJUGATES AND FORMULATIONS THEREOF” (Fusion Pharmaceuticals Inc., priority 2019, published 2026)

Tested on: NCI-H460 tumor-bearing mice (lung cancer)
Experiment: Biodistribution: lutetium accumulation in tumor, plasma and healthy tissues by ICP-MS
Type: in vivo
Conditions: for T/K (Tumor/Kidney ratio) / T/L (Tumor/Liver ratio) / T/P (Tumor/Plasma ratio) / Kidney uptake, % ID/g 24 h / Liver uptake, % ID/g 24 h / Plasma, % ID/g 24 h / Tumor uptake, % ID/g, 24 h / % ID/g uptake, H460 tumor, 24 h / % ID/g uptake, Kidney, 24 h / % ID/g uptake, Liver, 24 h / % ID/g uptake, Plasma, 24 h: 24 h; for Kidney uptake, % ID/g 24 h / Liver uptake, % ID/g 24 h / Plasma, % ID/g 24 h / Tumor uptake, % ID/g, 24 h: second table; for % ID/g uptake, H460 tumor, 24 h / % ID/g uptake, H460 tumor, 72 h / % ID/g uptake, Kidney, 24 h / % ID/g uptake, Kidney, 72 h / % ID/g uptake, Liver, 24 h / % ID/g uptake, Liver, 72 h / % ID/g uptake, Plasma, 24 h / % ID/g uptake, Plasma, 72 h: 0.5 mg/kg lutetium conjugate
Experimental: Lutetium accumulation was measured in tumor, plasma and healthy tissues of NCI-H460 tumor-bearing mice (lung cancer). NCJ-H460 tumor bearing mice were dosed with 0.5 mg/kg of lutetium conjugates. At the time points indicated, mice were sacrificed and tumor, liver, kidneys and plasma were taken. All tissues were analyzed for lutetium content by ICP-MS, and lutetium uptake in % ID/g determined by the following equation: […]
Biodistribution at 24 h and Tumor/Kidney ratio (T/K), Tumor/Liver ratio (T/L), Tumor/Plasma ratio (T/P) are give in the table below.

## CCNC(=O)c1nnc(-c2cc(C(C)C)c(O)cc2O)n1-c1ccc(CN2CCN(C(=O)CCOCCOCCOCCOCCNC(=O)CN3CCN4CCN5CCN6CC(=O)O[C]6(C3)[Lu]([O]C(=O)C4)[O]C(=O)C5)CC2)cc1 (stereo not drawn) [CMP1]
  T/K (Tumor/Kidney ratio): 1.28
  T/L (Tumor/Liver ratio): 1.92
  T/P (Tumor/Plasma ratio): 7.68
  Kidney uptake, % ID/g 24 h: 0.91 % ID/g
  Liver uptake, % ID/g 24 h: 0.607 % ID/g
  Plasma, % ID/g 24 h: 0.152 % ID/g
  Tumor uptake, % ID/g, 24 h: 1.167 % ID/g

## CCNC(=O)c1nnc(-c2cc(C(C)C)c(O)cc2O)n1-c1ccc2c(ccn2CCC2CCN(C(=O)CCNC(=O)[C@@H](CCC(=O)O)NC(=O)[C@@H](CCC(=O)O)NC(=O)[C@@H](CCC(=O)O)NC(=O)COCCOCCNC(=O)[C@H](CCCCNC(=O)CC[C@H](C(=O)O)N3CCN4CCN5CCN(CC3)CC(=O)[O][Lu]([O]C(=O)C5)[O]C(=O)C4)NC(=O)CCCc3ccc(I)cc3)CC2)c1 [T7]
  % ID/g uptake, H460 tumor, 24 h: 7.54 % ID/g
  % ID/g uptake, H460 tumor, 72 h: 4.05 % ID/g
  % ID/g uptake, Kidney, 24 h: 24.70 % ID/g
  % ID/g uptake, Kidney, 72 h: 13.10 % ID/g
  % ID/g uptake, Liver, 24 h: 1.88 % ID/g
  % ID/g uptake, Liver, 72 h: 1.01 % ID/g
  % ID/g uptake, Plasma, 24 h: 4.71 % ID/g
  % ID/g uptake, Plasma, 72 h: 0.42 % ID/g

## CCNC(=O)c1nnc(-c2cc(C(C)C)c(O)cc2O)n1-c1ccc(OC2CCN(C(=O)CCNC(=O)[C@@H](CCC(=O)N3CCC(Oc4ccc(-n5c(C(=O)NCC)nnc5-c5cc(C(C)C)c(O)cc5O)cc4)CC3)NC(=O)CCNC(=O)[C@@H](CCC(=O)O)NC(=O)[C@@H](CCC(=O)O)NC(=O)[C@@H](CCC(=O)O)NC(=O)COCCOCCNC(=O)[C@H](CCCCNC(=O)CC[C@H](C(=O)O)N(CC)CCN3CCN4CCN(C)CC(=O)[O][Lu]([O]C(=O)C4)[O]C(=O)C3)NC(=O)CCCc3ccc(I)cc3)CC2)cc1 [T12]
  % ID/g uptake, H460 tumor, 24 h: 9.01 % ID/g
  % ID/g uptake, H460 tumor, 72 h: 5.87 % ID/g
  % ID/g uptake, Kidney, 24 h: 34.00 % ID/g
  % ID/g uptake, Kidney, 72 h: 18.60 % ID/g
  % ID/g uptake, Liver, 24 h: 3.73 % ID/g
  % ID/g uptake, Liver, 72 h: 2.03 % ID/g
  % ID/g uptake, Plasma, 24 h: 5.08 % ID/g
  % ID/g uptake, Plasma, 72 h: 0.41 % ID/g

## CCNC(=O)c1nnc(-c2cc(C(C)C)c(O)cc2O)n1-c1ccc(CN2CCN(C(=O)CC[C@H](NC(=O)CCNC(=O)[C@@H](CCC(=O)O)NC(=O)[C@@H](CCC(=O)O)NC(=O)[C@@H](CCC(=O)O)NC(=O)COCCOCCNC(=O)CC[C@H](C(=O)O)N3CCN4CCN5CCN(CC3)CC(=O)[O][Lu]([O]C(=O)C5)[O]C(=O)C4)C(=O)N3CCN(Cc4ccc(-n5c(C(=O)NCC)nnc5-c5cc(C(C)C)c(O)cc5O)cc4)CC3)CC2)cc1 [T5]
  % ID/g uptake, H460 tumor, 24 h: 1.74 % ID/g
  % ID/g uptake, H460 tumor, 72 h: 0.00 % ID/g
  % ID/g uptake, Kidney, 24 h: 3.14 % ID/g
  % ID/g uptake, Kidney, 72 h: 1.08 % ID/g
  % ID/g uptake, Liver, 24 h: 0.68 % ID/g
  % ID/g uptake, Liver, 72 h: 0.23 % ID/g
  % ID/g uptake, Plasma, 24 h: 0.16 % ID/g
  % ID/g uptake, Plasma, 72 h: 0.01 % ID/g

## CCNC(=O)c1nnc(-c2cc(C(C)C)c(O)cc2O)n1-c1ccc(OC2CCN(C(=O)CCOCCOCCOCCOCCNC(=O)CC[C@@H](C(=O)O)N(CC)CCN3CCN4CCN(C)CC(=O)[O][Lu]([O]C(=O)C4)[O]C(=O)C3)CC2)cc1 [CMP2]
  T/K (Tumor/Kidney ratio): 2.12
  T/L (Tumor/Liver ratio): 1.98
  T/P (Tumor/Plasma ratio): 2.51
  Kidney uptake, % ID/g 24 h: 0.438 % ID/g
  Liver uptake, % ID/g 24 h: 0.469 % ID/g
  Plasma, % ID/g 24 h: 0.369 % ID/g
  Tumor uptake, % ID/g, 24 h: 0.927 % ID/g

## CC(C)c1cc(-c2nnc(O)n2-c2ccc(OC3CCN(C(=O)CCOCCOCCOCCOCCOCCOCCOCCOCCOCCOCCOCCOCCNC(=O)CN4CCN5CCN6CCN(CC4)CC(=O)[O][Lu]([O]C(=O)C5)[O]C(=O)C6)CC3)cc2)c(O)cc1O [CMP42]
  T/K (Tumor/Kidney ratio): 2.23
  T/L (Tumor/Liver ratio): 9.89
  T/P (Tumor/Plasma ratio): 26.76
  Kidney uptake, % ID/g 24 h: 0.26 % ID/g
  Liver uptake, % ID/g 24 h: 0.06 % ID/g
  Plasma, % ID/g 24 h: 0.02 % ID/g
  Tumor uptake, % ID/g, 24 h: 0.57 % ID/g
